Assay results published in patent US20230002466A1 (ELPIS BIOPHARMACEUTICALS, published 2023).

T1: human IL2Rβ (human, UniProt P14784 27-239)
T1 construct: also called IL2β; CD122
T1 sequence (looked up): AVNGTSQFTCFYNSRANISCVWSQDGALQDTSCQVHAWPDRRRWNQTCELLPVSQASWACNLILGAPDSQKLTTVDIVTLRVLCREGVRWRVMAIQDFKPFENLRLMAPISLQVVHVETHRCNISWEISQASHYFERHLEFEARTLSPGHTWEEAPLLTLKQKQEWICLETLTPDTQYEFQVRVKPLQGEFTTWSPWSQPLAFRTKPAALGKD

T2: human IL2Rα Fc fusion protein (human, UniProt P01589 22-213, limits assumed)
T2 construct: also called Recombinant Fc-tagged human IL2Rα; not shown: Fc
T2 sequence (looked up): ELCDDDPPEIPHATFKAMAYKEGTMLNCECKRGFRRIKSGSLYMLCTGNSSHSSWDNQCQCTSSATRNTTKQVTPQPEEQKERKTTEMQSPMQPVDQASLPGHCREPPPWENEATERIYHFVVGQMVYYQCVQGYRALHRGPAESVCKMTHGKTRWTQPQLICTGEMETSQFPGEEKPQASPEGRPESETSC

T3: human IL2Rβ Fc fusion protein (human, UniProt P14784 27-239)
T3 construct: also called Recombinant Fc-tagged human IL2Rβ; not shown: Fc
T3 sequence (looked up): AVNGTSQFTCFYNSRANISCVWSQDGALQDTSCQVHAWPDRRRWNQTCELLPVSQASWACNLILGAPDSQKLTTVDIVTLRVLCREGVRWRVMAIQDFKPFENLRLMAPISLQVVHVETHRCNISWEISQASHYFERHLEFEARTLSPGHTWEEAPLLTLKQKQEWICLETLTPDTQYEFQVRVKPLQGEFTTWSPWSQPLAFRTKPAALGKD

T4: human IL2Rα (human, UniProt P01589 22-213, limits assumed)
T4 construct: also called IL2α; CD25
T4 sequence (looked up): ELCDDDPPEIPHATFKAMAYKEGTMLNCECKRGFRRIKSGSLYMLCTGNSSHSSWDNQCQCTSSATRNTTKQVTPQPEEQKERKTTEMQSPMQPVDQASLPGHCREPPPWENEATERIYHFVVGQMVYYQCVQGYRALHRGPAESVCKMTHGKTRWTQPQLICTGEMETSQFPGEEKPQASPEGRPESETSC


Experiments:
[1] = target: T1, human IL2Rβ; assay: SPR, receptor captured on Protein A chip, E. coli-produced IL2
Experimental: The assay was run with Biacore T200 control software version 2.0. For each cycle, 1 μg/mL of human IL2Rβ or IL2Rα was captured for 60 seconds at flow rate of 10 μL/min on flow cell 2 in 1×HBST buffer on Protein A sensor chip. Two-fold serial diluted HIS tag purified engineered IL2 mutant was injected onto both reference flow cell 1 and IL2Rβ or IL2Rα captured flow cell 2 for 150 seconds at flow rate of 30 μL/min followed by washing for 300 seconds. The flow cells were then regenerated with Glycine pH 2 for 40 seconds at a flow rate of 30 μL/mins. Eight concentration points from 0 to 100 nM were assayed for each IL2Rβ agonist clone 96-well plate format. The kinetics data was analyzed with Biacore T200 evaluation software 3000. The specific binding response unit was derived from subtraction of binding to reference flow cell 1 from target flow cell 2.

[2] = target: T2, human IL2Rα Fc fusion protein; assay: ELISA, receptor-Fc coated, anti-Flag HRP
Experimental: (§1) Briefly, 384 well plate was immobilized with human IL2Rα and IL2Rβ Fc fusion proteins at a final concentration of 2 ug/mL in 1×PBS in total volume of 25 uL per well. The plate was incubated overnight at 4 C and blocked with 80 uL of superblock per well for 1 hour. […] Each dilution was added to IL2Rα or IL2Rβ wells in parallel in duplicates. The IL2 mutant binding was detected by adding 25 uL of anti-Flag HRP diluted at 1:5000 in 1×PBST. In between each step, the plate was washed three times with 1×PBST using a plate washer. The plate was then developed with 25 uL of TMB substrate for five minutes and stopped by adding 25 ul of 2N sulfuric acid. The plate was read at OD450 nm Biotek plate reader and the EC50 was analyzed with Prism 8.1 software to generate EC50 values (FIG. 15A for IL2Rα, and FIG. 15B for IL2Rβ, summarized in Table 9).

[3] = target: T3, human IL2Rβ Fc fusion protein; assay: ELISA, receptor-Fc coated, anti-Flag HRP
Experimental: as §1

[4] = target: T4, human IL2Rα; assay: SPR, IL2Rα captured on Protein A chip, IL2 at 100 nM
Experimental: The binding kinetics of IL2Rα-reduced binding clones to IL2Rα was assessed utilizing SPR technology with a Biacore T200, software version 2.0. For each cycle, 1 ug/mL of human IL2Rα was captured for 60 seconds at a flow rate of 10 uL/min on flow cell 2 in 1×HBSP buffer on a Protein A sensor chip. 100 nM of each HIS and Flag tag purified IL2 mutant was injected onto both the reference flow cell 1 and IL2Rα captured flow cell 2 for 150 seconds at a flow rate of 30 uL/min followed by washing for 300 seconds. The flow cells were then regenerated with Glycine pH 2.0 for 60 seconds at a flow rate of 30 uL/min. A HBSP+ buffer was included with each sample as a baseline control. The assay was set up in a 96-well format. The kinetics data was analyzed with Biacore T200 evaluation software 3.0. The specific binding response unit was derived from subtraction of binding to reference flow cell 1 from IL2Rα flow cell 2 and subtraction of buffer control. […] Relative response (RU) was determined for each IL2Rα-reduced binding clone (FIG. 4, Table 3).

[5] = target: T3, human IL2Rβ Fc fusion protein; assay: ELISA, Fc-tagged receptor coated, anti-HisTag-HRP
Experimental: Recombinant Fc-tagged human IL2Rα and IL2Rβ were added in 25 uL of 1×PBS to wells of 384-well plate and incubated overnight at 4° C. to coat the plates. Plates were washed three times with 0.05% Tween20/1×PBS. Plates were blocked with 100 uL of SuperBlock for 1 hr at RT and then washed 3 times with 0.05% Tween20/1×PBS. IL2 mutants were diluted in 0.05% Tween 20/1×PBS from 1000 nM to 0 nM and added to plates for 2 hrs at room temperature. Plates were then washed 6 times with 0.05% Tween20/1×PBS. Anti-HisTag-HRP was diluted 1:5000 in 0.05% Tween20/1×PBS and added to plates for 1 hr at RT. Plates were then washed 6 times with 0.05% Tween 20/1×PBS, and TMB was added to develop blue color. Reactions were stopped with 2N […] and light absorbance at 450 nm was read on a BioTek plate reader.

| EC50 [2] [nM] | EC50 [3] [nM] | RU (at 100 nM) [4] [RU] | Relevant binding to WT IL2 (%) [4] [%] | Binder | also measured |
| --- | --- | --- | --- | --- | --- |
| – | – | – | – | EP007 (ligand, not shown: C-terminal Flag and 6xHis tags) APTSSSTKKTQLQLEHLLLDLQMILNGINNYKNPKLTRMLTFKFYMPKKATELKHLQCLEEELKPLEEVLNLAQSKNFHLKWGDAVSNARVLAGALKGSETTFMCEYADETATIVEFLNRWITFCQSIISTLT | Kd [1]: 0.37 nM; koff [1]: 0.000263 s⁻¹; kon [1]: 709000 M⁻¹ s⁻¹; relative activity IL2Rβ (KD: fold) against WT IL2 [1]: 11700 fold |
| 20.2 | 576 | – | – | EP249 (ligand, not shown: His and Flag tags) APTSSSTKKTQLQLEHLLLDLQMILNGINNYKNPKLTRMLTFKFYMPKKATELKHLQCLEEELKPLEEVLNLAQSKNFHLTPRDLIDNIRVIIQELKGSETTFMCEYADETATIVEFLNRWITFCQSIISTLT | – |
| 10.2 | 2830 | – | – | EP244 (ligand, not shown: His and Flag tags) APTSSSTKKTQLQLEHLLLDLQMILNGINNYKNPKLTRMLTFKFYMPKKATELKHLQCLEEELKPLEEVLNLAQSKNFHLRARDLIDNIRVIIQELKGSETTFMCEYADETATIVEFLNRWITFCQSIISTLT | – |
| – | – | 2.5 | 1.76 | EP117 (ligand) APTSSSTKKTQLQLEHLLLDLQMILNGINNYKNPKLTYMLTFKFSMPKKATELKHLQCLEEELKPLEEVLNLAQSKNFHLRPRDLISNINVIVLELKGSETTFMCEYADETATIVEFLNRWITFSQSIISTLT | – |
| – | – | – | – | EP350 (ligand, not shown: His and Flag tags) APTSSSTKKTQLQLEHLLLDLQMILNGINNYKNPKLTRMLTAKFYMPKKATELKHLQCLEEELKPLEEVLNLAQSKNFHLTARDAISNINVIIQELKGSETTFMCEYADETATIVEFLNRWITFCQSIISTLT | EC50 [5]: 39.9 nM |
| 13.4 | 188 | – | – | EP248 (ligand, not shown: His and Flag tags) APTSSSTKKTQLQLEHLLLDLQMILNGINNYKNPKLTRMLTFKFYMPKKATELKHLQCLEEELKPLEEVLNLAQSKNFHLRARDAIDNIRVIILELKGSETTFMCEYADETATIVEFLNRWITFCQSIISTLT | – |
| – | – | 3.6 | 2.54 | EP120 (ligand) APTSSSTKKTQLQLEHLLLDLQMILNGINNYKNPKLTVMLTFKFTMPKKATELKHLQCLEEELKPLEEVLNLAQSKNFHLRPRDLISNINVIVLELKGSETTFMCEYADETATIVEFLNRWITFSQSIISTLT | – |
| – | – | 2.7 | 1.9 | EP102 (ligand, not shown: small tags and cut ends) APTSSSTKKTQLQLEHLLLDLQMILNGINNYKNPDLTSMLAFKFYMPKKATELKHLQCLEEELKPLEEVLNLAQSKNFHLRPRDLISNINVIVLELKGSETTFMCEYADETATIVEFLNRWITFSQSIISTLT | – |
| 4.8 | 123 | – | – | EP245 (ligand, not shown: His and Flag tags) APTSSSTKKTQLQLEHLLLDLQMILNGINNYKNPKLTRMLTFKFYMPKKATELKHLQCLEEELKPLEEVLNLAQSKNFHLRARDAISNIRVIIQELKGSETTFMCEYADETATIVEFLNRWITFCQSIISTLT | – |
| – | – | 1.7 | 1.19 | EP100 (ligand) APTSSSTKKTQLQLEHLLLDLQMILNGINNYKNPVLTRMLTIKFYMPKKATELKHLQCLEEELKPLEEVLNLAQSKNFHLRPRDLISNINVIVLELKGSETTFMCEYADETATIVEFLNRWITFSQSIISTLT | – |
| 5.6 | – | – | – | EP257 (ligand, not shown: His and Flag tags) APTSSSTKKTQLQLEHLLLDLQMILNGINNYKNPKLTRMLTFKFYMPKKATELKHLQCLEEELKPLEEVLNLAQSKNFHLTARDLIDNIRVIILELKGSETTFMCEYADETATIVEFLNRWITFCQSIISTLT | – |
| 6.7 | 217 | – | – | EP243 (ligand, not shown: His and Flag tags) APTSSSTKKTQLQLEHLLLDLQMILNGINNYKNPKLTRMLTFKFYMPKKATELKHLQCLEEELKPLEEVLNLAQSKNFHLRPRDAIDNIRVIIQELKGSETTFMCEYADETATIVEFLNRWITFCQSIISTLT | – |
| – | – | 2.6 | 1.83 | EP110 (ligand, not shown: His and Flag tags) APTSSSTKKTQLQLEHLLLDLQMILNGINNYKNPLLTDMLTRKFYMPKKATELKHLQCLEEELKPLEEVLNLAQSKNFHLRPRDLISNINVIVLELKGSETTFMCEYADETATIVEFLNRWITFCQSIISTLT | – |
| – | – | – | – | EP347 (ligand, not shown: His and Flag tags) APTSSSTKKTQLQLEHLLLDLQMILNGINNYKNPKLTVMLTFKFSMPKKATELKHLQCLEEELKPLEEVLNLAQSKNFHLTPRDAIDNIRVIVQELKGSETTFMCEYADETATIVEFLNRWITFCQSIISTLT | EC50 [5]: 77.6 nM |
| – | – | 2.5 | 1.76 | EP101 (ligand) APTSSSTKKTQLQLEHLLLDLQMILNGINNYKNPKLTRMLTLKFPMPKKATELKHLQCLEEELKPLEEVLNLAQSKNFHLRPRDLISNINVIVLELKGSETTFMCEYADETATIVEFLNRWITFSQSIISTLT | – |
| 13.2 | 23.4 | – | – | EP250 (ligand, not shown: His and Flag tags) APTSSSTKKTQLQLEHLLLDLQMILNGINNYKNPKLTRMLTFKFYMPKKATELKHLQCLEEELKPLEEVLNLAQSKNFHLTPRDAISNIRVIIQELKGSETTFMCEYADETATIVEFLNRWITFCQSIISTLT | – |
| 7 | 269 | – | – | EP246 (ligand, not shown: His and Flag tags) APTSSSTKKTQLQLEHLLLDLQMILNGINNYKNPKLTRMLTFKFYMPKKATELKHLQCLEEELKPLEEVLNLAQSKNFHLRARDAIDNINVIIQELKGSETTFMCEYADETATIVEFLNRWITFCQSIISTLT | – |
| – | – | 6.1 | 4.29 | EP125 (ligand) APTSSSTKKTQLQLEHLLLDLQMILNGINNYKNPKLTNMLTFKFAMPKKATELKHLQCLEEELKPLEEVLNLAQSKNFHLRPRDLISNINVIVLELKGSETTFMCEYADETATIVEFLNRWITFSQSIISTLT | – |
